“Also recorded” adds a separate entry of the source. Like-named read-outs stand apart in the source and are kept apart here.
Columns and labels:
[1] = Phase 1/2 study of Compound 1: pharmacokinetics; assay type: in vivo, human; settings: for half-life: in vivo
Source text: (§1) This is a first-in-human, Phase 1/2 open-label, multicenter, dose-escalation, safety, pharmacokinetics (PK), and biomarker study of Compound 1 in subjects with advanced or metastatic refractory solid tumors.
• To determine the pharmacokinetics (PK) of Compound 1 • To evaluate the preliminary anti-tumor activity of Compound 1 based on Response Evaluation Criteria in Solid Tumors (RECIST) 1.1 as follows: • Objective response rate (ORR) • Duration of response (DoR) • Progression-free survival (PFS)
(§2) The subject will receive treatment with Compound 1 and be monitored for safety and disease status by AE assessment, physical examination, laboratory tests, radiologic assessment, and ECG. PK and biomarker samples will be collected. All AEs and serious adverse events (SAEs) will be assessed using the National Cancer Institute Common Terminology Criteria for Adverse Events (NCI CTCAE) v5.0. Disease assessments by computed tomography (CT) or magnetic resonance imaging (MRI) will be conducted at protocol-specific intervals. Subjects may continue treatment as long as they are tolerating treatment without disease progression based on RECIST 1.1.
(§3) Compound 1 was administered as a 1-hour IV infusion. As set forth above, the first patient on study was treated with a starting dose of 0.25 mg/kg, which was dosed daily five times a week every 3 weeks (Schedule A). Initially. an accelerated dose tritation was utilized, wherein single patient cohorts were accrued and the dose was escalated up to 100% for each new cohort until the occurrence of Grade 2 or greater treatment-related adverse events (TRAEs). A single patient was accrued to Cohort A1 (0.25 mg/kg). The dose was doubled to 0.5 mg/kg for Cohort A2, and 3 patients were accrued to this cohort due to the occurrence of greater than Grade 2 level adverse events.

[2] = Phase 1/2 study of Compound 1: safety and tolerability (adverse events, NCI CTCAE v5.0); assay type: in vivo, human
Source text: as §1
• To determine the safety and tolerability, maximum tolerated doses (MTDs) and dose limiting toxicities (DLTs) of Compound 1 in subjects with advanced or metastatic refractory solid tumors when administered on the following schedules: • Daily×5 every 3 weeks (Part A) • Daily×3 every 3 weeks (Part B) • To establish the Recommended Phase 2 Dose (RP2D) of Compound 1 for each schedule
as §2
DLTs will be assessed for all subjects enrolled in Phase I through their initial 3-week cycle of treatment (Cycle 1, the DLT period). Any AE occurring during the DLT period deemed at least possibly related to Compound 1 and meeting the criteria below will be designated a DLT. […] This will, however, be considered in the SRC's subsequent dose-level recommendations.
as §3
Schedule B: once daily three times per week every three weeks, on a mg/m^2 basis (in other words, the dosage was calculated based on the patient's body surface area)
Schedule C: once weekly on a mg/m^2 basis. Patients treated on this schedule received a sentinel dose on Day -14 followed by 2 weeks of no treatment to evaluate the full PK profile of Compound 1 and exatecan. Once weekly dosing started Cycle 1 Day 1.

[3] = Subject 1-5, Ovarian, prior TOP1 inhibitor Yes, Cohort B1 20 mg/m^2, Schedule B: Daily x 3 Every 3 Weeks
[4] = Subject 1-8, Pancreas, prior TOP1 inhibitor Yes, Cohort C1 20 mg/m^2, Schedule C: Once Weekly
[5] = Subject 1-9, Colorectal, prior TOP1 inhibitor Yes, Cohort B3 45 mg/m^2, Schedule B: Daily x 3 Every 3 Weeks
[6] = Subject 2-4, Appendiceal, prior TOP1 inhibitor Yes, Cohort B2 30 mg/m^2, Schedule B: Daily x 3 Every 3 Weeks
[7] = Subject 2-6, Breast, prior TOP1 inhibitor No, Cohort B2 30 mg/m^2, Schedule B: Daily x 3 Every 3 Weeks
[8] = Subject 2-12, Breast, prior TOP1 inhibitor No, Cohort B4 60 mg/m^2, Schedule B: Daily x 3 Every 3 Weeks
[9] = Subject 3-1, Colorectal, prior TOP1 inhibitor Yes, Cohort B3 45 mg/m^2, Schedule B: Daily x 3 Every 3 Weeks
[10] = Subject 5-2, Colorectal, prior TOP1 inhibitor Yes, Cohort B4 60 mg/m^2, Schedule B: Daily x 3 Every 3 Weeks

SMILES: CC[C@@]1(O)C(=O)OCc2c1cc1n(c2=O)Cc2c-1nc1cc(F)c(C)c3c1c2[C@@H](NC(=O)O[C@H]1CCCC[C@@H]1SSC[C@H](NC(=O)[C@H](Cc1c[nH]c2ccccc12)NC(=O)[C@H](CC(C)C)NC(=O)[C@H](CC(C)C)NC(=O)[C@H](CC(=O)O)NC(=O)[C@H](CC(C)C)NC(=O)[C@H](CC(C)C)NC(=O)[C@H](CC(C)C)NC(=O)[C@@H](NC(=O)[C@H](CC(=O)O)NC(=O)[C@@H](NC(=O)[C@@H]1CCCN1C(=O)[C@H](Cc1ccccc1)NC(=O)[C@H](CC(C)C)NC(=O)[C@H](CC(C)C)NC(=O)[C@H](CC(=O)O)NC(=O)[C@H](CC(C)C)NC(=O)[C@H](Cc1ccc(O)cc1)NC(=O)[C@H](C)NC(=O)[C@H](CCCNC(=N)N)NC(=O)[C@H](Cc1c[nH]c2ccccc12)NC(=O)[C@@H]1CCCN1C(=O)[C@H](CC(N)=O)NC(=O)[C@H](CCC(N)=O)NC(=O)[C@H](CC(=O)O)NC(=O)[C@H](CC(=O)O)NC(=O)[C@H](C)N)[C@@H](C)O)[C@@H](C)O)C(=O)NCC(=O)O)CC3 [Compound 1]
- accumulation ([1]; five consecutive days of dosing, Schedule A): significant accumulation
- half-life ([1]; human, initial four patients, Schedule A (daily five times a week every 3 weeks), 0.25-0.5 mg/kg, 1-hour IV infusion, read-out: half-life of Compound 1 (converted)): ~20 h
- half-life ([1]; prediction made before the study, read-out: predicted half-life (converted)): ~8 h
- adverse events, Grade level ([2]; Cohort A2, 0.5 mg/kg, Schedule A, 3 patients): > 2
- Treatment-Related Adverse Events, Gr 1 [2, 3]: Gr 1: Fatigue
- Treatment-Related Adverse Events, Gr 2 [2, 3]: Dehydration
- Treatment-Related Adverse Events ([2]; Subject 1-6, Testicular, prior TOP1 inhibitor No, Cohort B1 20 mg/m^2, Schedule B: Daily x 3 Every 3 Weeks): No TRAEs
- Treatment-Related Adverse Events, Gr 2 ([2]; Subject 1-7, Esophageal/GEJ (baseline Hgb 9.4), Cohort B1 20 mg/m^2, Schedule B: Daily x 3 Every 3 Weeks): Gr 2: Anemia
- Treatment-Related Adverse Events, Gr 1 ([2]; Subject 1-7, Esophageal/GEJ, prior TOP1 inhibitor No, Cohort B1 20 mg/m^2, Schedule B: Daily x 3 Every 3 Weeks): Gr 1: Fatigue,
- Treatment-Related Adverse Events, Gr 1 [2, 4]: Gr 1: Vomiting
- Treatment-Related Adverse Events, Gr 2 [2, 4]: Gr 2: Nausea
- Treatment-Related Adverse Events, Gr 1 [2, 5]: Gr 1: Vomiting,; also recorded: diarrhea
- Treatment-Related Adverse Events, Gr 2 [2, 5]: Gr 2: Nausea
- Treatment-Related Adverse Events, Gr 3 ([2]; Subject 1-9, Colorectal, AST/ALT elevation resolved to Gr 1 in 2-3 days, Cohort B3 45 mg/m^2, Schedule B: Daily x 3 Every 3 Weeks): anemia
- Treatment-Related Adverse Events ([2]; Subject 2-1, Pancreas, prior TOP1 inhibitor Yes, Cohort C1 20 mg/m^2, Schedule C: Once Weekly): No TRAES
- Treatment-Related Adverse Events ([2]; Subject 2-2, Colon, prior TOP1 inhibitor Yes, Cohort C1 20 mg/m^2, Schedule C: Once Weekly, off treatment after PK period): No TRAEs
- Treatment-Related Adverse Events, Gr 2 ([2]; Subject 2-3, Ovarian, prior TOP1 inhibitor No, Cohort C1 20 mg/m^2, Schedule C: Once Weekly): Gr 2: Fatigue
- Treatment-Related Adverse Events, Gr 1 [2, 6]: Gr 1: Anemia
- Treatment-Related Adverse Events, Gr 2 [2, 6]: Gr 2: Nausea,; also recorded: vomiting
- Treatment-Related Adverse Events, Gr 3 ([2]; Subject 2-5, Breast, prior TOP1 inhibitor Yes (C4D11), Cohort B2 30 mg/m^2, Schedule B: Daily x 3 Every 3 Weeks): Neutropenia
- Treatment-Related Adverse Events, Gr 1 [2, 7]: Gr 1: Fatigue,; also recorded: nausea
- Treatment-Related Adverse Events, Gr 2 [2, 7]: Neutropenia,; also recorded: WBC decrease
- Treatment-Related Adverse Events ([2]; Subject 2-8, Osteosarcoma, prior TOP1 inhibitor Unknown, Cohort B3 45 mg/m^2, Schedule B: Daily x 3 Every 3 Weeks, removed from study on C1D2): No TRAEs
- Treatment-Related Adverse Events ([2]; Subject 2-9, Breast, prior TOP1 inhibitor No, Cohort C1 20 mg/m^2, Schedule C: Once Weekly): No TRAEs
- Treatment-Related Adverse Events, Gr 2 ([2]; Subject 2-11, Ovarian (C1D1 Hgb = 10.3), Cohort B3 45 mg/m^2, Schedule B: Daily x 3 Every 3 Weeks): Gr 2: Anemia
- Treatment-Related Adverse Events, Gr 3 ([2]; Subject 2-11, Ovarian (resolved in 2 days), Cohort B3 45 mg/m^2, Schedule B: Daily x 3 Every 3 Weeks): Neutropenia
- Treatment-Related Adverse Events, Gr 1 ([2]; Subject 2-11, Ovarian, prior TOP1 inhibitor No, Cohort B3 45 mg/m^2, Schedule B: Daily x 3 Every 3 Weeks): Gr 1: Nausea,; also recorded: lipase increase,; also recorded: alopecia
- Treatment-Related Adverse Events, Gr 1 [2, 8]: Gr 1: Vomiting
- Treatment-Related Adverse Events, Gr 2 [2, 8]: Gr 2: Colitis
- Treatment-Related Adverse Events, Gr 4 [2, 8]: Neutropenia,; also recorded: thrombocytopenia
- Treatment-Related Adverse Events, Gr 1 [2, 9]: Gr 1: Headache
- Treatment-Related Adverse Events, Gr 2 [2, 9]: Gr 2: Nausea,; also recorded: WBC decrease,; also recorded: ANC decrease,; also recorded: diarrhea
- Treatment-Related Adverse Events, Gr 2 [2, 10]: Gr2: Vomiting,; also recorded: dehydration
- Treatment-Related Adverse Events, Gr 3 [2, 10]: anemia
- Treatment-Related Adverse Events, Gr 4 [2, 10]: Neutropenia,; also recorded: thrombocytopenia

From patent US20240226308A1, “DOSING REGIMENS OF PEPTIDE CONJUGATES OF TOPOISOMERASE I INHIBITORS” (CYBREXA 2, INC., priority 2021, published 2024)
